# Assay: soluble on expression in E. coli; label from the status in PepcDB or PDB records
row,Sequence,soluble on expression in E. coli
1,MAQTQLSYKNKTYQISYEILGDLSLPQILILHGWGADKKLMKQSFCPFLKDFCQIYMDLAGFGNSSVEEILNTQDYANITELFLKQKKLNVCFFMGHSFGGKVSTLLAKEKDTLILLSSAGILAKKSLKVRFKIRIFKILKLFGLGKFYRYFASKDGANLSPIMYETFKKVVDEDFSEIFAKQKAKSLIFWGKSDEATPLYCGEKMHQFLKNSTFYPLEGDHFFFLKHSAFIAQKIKEI,not soluble
2,MMSLREKLIRELRRRGPIGIDQYEIEELMGFSKSTASEALSKLEAEGIIARRQISGRSKRVWLREFIPYRDPEMIRIGCLKSTEYAGFLSAAKDYCENKGIKAVIRFYNDATSILHDLSTGTLEFGLSPIFTETLFALSRHDIVIAGPVASGGSGIFENPASCENIVATSESTSMMLLSREFRRREGDVKITIFSDPIKASDGFRAGDFRYIAIWEPYASVIGANKLYDYSDLMDTFPCCGIAVSSGRSKDADLKSIIDAYRETDVEIRSDVIDMLSKATRCSKRAVMNSLGSYNFKLKYDMQTILRYMDFIGYPASEDAIKKVFLL,soluble
3,MVKVTIIIPTYNPREHLIDTLLSVRTQNFTNIEVLIVDDGSTVDVSTLIKPYITADNIRCIRRKNGGTAAARNTGITNSTGEYIAFLDHDDIWLPDKVALQVEALDRNLSCGLTYCNFQILDEQTGSLINPHRQGEGGCMFEKFLYRNYITTASQIMVRRSCFDQLGLFDESLPIVDDYDFYLRLSRCYDIHYDPRVLTHWRSHQFNTSKNYEKTQLGRIKVKETALNRWALSDNQKKILFKGLRRDYYELAYYYLNSEKYSDARNYFRKAVPYRPVKSIVYYLSTCVPGLSYLNMKALKNDFLKLEHHHHHH,not soluble
4,MGVETLNKVFKIAKKFYTDIRYYSFQLACIHLGETFSRYTKFNLADKYYLKKDKIVLNYLRTRYTNSPKQDVYGGVPKIYQPIWVFWYQGEEQMPKLVSACLKSVRNNANGHEVILISKENMNNYIEIPDVIRDRVESKKISMAQYSDIIRMCLLAEYGGLWIDATVLVTQLIPQYIFELPLFTIKNSPNQEDPLYFISVSHLRWTTYVMGGEPNNALFTFVRDLLIEYNSVENALIDYLLIDYAIELAIEKNSSISDDMIKIPINNQLKEEFVHRLFSVYPDCKTKELLQSGTIFFKLSYKKVAPKVIEKNNYQLLVDGDLCQAYNMGNLEHHHHHH,not soluble
5,MGSDKIHHHHHHMSERLRVLVVSHGHPAMSLGGAEIASHSLHKGLNTLPGVESIYLARVGHPVPRHGASALMSLRLAVDEVLFHADDYDHFFLSNGDTEAIRRDLLRFIGDLSPHVIHFHHLIGMGMEALYALREALPEAVIVVTFHEYLSLCHNHGQMVKRPSAQLCNSSSPISCHGCFPDIPVSRFLRREEFLRGMLGLADAFISPSMFLANRYVEWGIDAEKLSVIDNGIVMGEAAPVRDLPVPSARRNRFAYFGQMTPFKGIDVLVDAVSRVPEEIWGEDSCLMIFGGNLERQPAEFQERLKKLIDDAGRRVRFYGAYQNADMPRLMRSVDWVVLPSIWWENSPVVIQEALHHRRPIICSDIGGMAEKVQDGRDGLHFRAGSAQDLADRLSDVLVKPEAWDRLHATLRPPTGHAESARAHADLYRRLLKDRRSPLGAAQYEAAAQAVV,not soluble
6,MPPMHLLKSKVHIAEALNDETTMSLLKKIVSKKCISKISQWKNELSSNLDG,not soluble
7,MSLEPYRPICQNRPICGKIPRLNLTEGDTVLDREGYRPNVGIILINERNEVFWGKRVREHSWQFPQGGIKPGESPETAMYRELYEEVGLLPQHVKIVGRTRDWLRYDVPNNWVRREWRGSYRGQKQIWYLLRLTGRDCDVNLRATRHPEFDGWRWHQYWAPVDEVIDFKRDVYLEALKELSSRFLRGMESYEDFAARQPSGNREGHHHHHH,soluble
8,MGSDKIHHHHHHMIHSETFAEIATLKERNLIALKEAREAGRHAVGTYCLFSPTELILAAGAIPVSLCGTSQKPIPAAEKVLPRNLCPLIKSSYGFAVTDTCPYFHFADFLLAETTCDGKKKMYELLGELKPIHVMQLPQIQDEAALDYWLMEIGRLKTRLEREFGVRITDKALTEAIRLMNEERRSLQALQDVCKAIPSPISGLDLLTVLHNRGFSVDRRAAIELVDRFAAELRQMAAAGISPFTESTPRILLTGVPVGVGSEKLIRIIEESGASVVCLESCGAYKKVEQVREGGDPLRAIAERYLKVPCSCMSPNTGRLELVERLTREFRVDGVVDLTWLGCHTYAVESSVLKKHLQQRTGLPFLQIETDYSESDTGQLKVRVEAFLEIVHRSMKRTA,not soluble
9,MGSDKIHHHHHHMFREDRKGLIVVEVENQDLIKTIQVKFPRLSKGQKLIAEYILKHYDKAAFLTAAKLGSSVGVSESTVVRFANELGFSGYPKLQKALQELIKNKLTTVQRIELSNDFIDQESTLKSVLKSDMENIRYTLEKINHKTFDDVVDSIFSAKRIYILGLRSSTPIAEFLGFYLNLILDNAKIISYGVSDIFEQMMNVAKGDLVIGIGFPRYAARTIEALDYAQNNEATVVAITDSLLSPLAARANHTLIAQSNMASFVDSLVAPLSVVNALIIAVGLREKDKISSTFSKLEHIWQEYEVYSYKERRRD,not soluble
10,MGSDKIHHHHHHMVKRKNVAVIGGGVSGLAAAKAFDERGHRVTGFERSHDFGGVWELSRSYPDVQTQSPKDLYCYTDLPMPDAYPEWPKGPQVHAYLHSYANKHNLPRLFQLNTNILSMDRRADGQPGWTLTIEAAGRVRKEDFDFVAICTGQFSDKNILTHPGQEAFVAGGGEVIHSSEYTDSEMARGKHVVVLGGSKSATDIVVNAARSGAKSVTMVYRENVWRVPYFVGGINFKRLLYMRAQEQQFNQWGKSPLQRVIAALLKPLVWANFRGLETLLKAQLGLKKWNMVPDTPIEKEASCSLPIVTPGLFESFRDGTVKPIQGTYDRYEDGHVVLTTGDRVPCDLSVLAVGWKLGIPYLAQEYRDKLIEADGQYRVYRLAVNPDLPDMGFVGFNSSFCTILSAEMIANWLVRFADGQLAHQPSAQEMNANIEMMLNWRRKERPAAQVYGGLCSAPFHFKHFDELLADMGAGVRKRANPLAEQFSYPDARAYGRFLASTPQYQAG,not soluble
11,IGAWGYNVGFNLYDSKTVVTKYHNESKIILKSDGTNNYYEGYEIGSIWGYVTDGYYTADDFEDTNTWKLKEGVVTVDGVSPRPGDIKYQNLRDDGSSTNRIDTGDGTFDNPGDRKIIGNNSLRLQYGINLGVNYKGFDLSVLLQGVGKRDVWISDARRWPFNSGQFGSLFKDQLDYWKPVDSANGDWTAANPNAEYFRIYGQGNNSSYNTRAQTKYLMNGSYLRVKNVTLSYNFPKSWLAPITLTSLKAFVSCENLHTFTKLMKGYDPERLSWGYPFYRTISFGFNVTL,not soluble
12,GPGSMLRGTRLMLMMQLHSLPTPNPSCYTFHIPSSTYDNFIPDGQTCDVAHMGLAWVHPLSQGIFEQYPQEVASVFIAPRHTSITVHPHVDWNKLEWSISSFIGHYLVFTNACFPAAAEYALLEDDLVIHEDDSEVLQCIKELVREQVRPMVQRDGGDVKLLNFNEKTGVVSLAMLGACRTCPSSQNTLKDGVERLLKHFLPEVKEVVEAKGHAFYEEYGLLFDSEKALREEAARVDAVRRRKISIYTTAPLMPFEALNEPDGDE,not soluble
13,MEITKTDLFYNISEQQQAEMMHCFKTYTRTYKSGEVICFYDDNNIGVGIIESGSARVIHFLPNGTQTILEQLCRGDLFGQLFYHYACPESISLEATCDCVVRFIDYEHIIKRCSKACPHHSQLVNNILVIISDKTRSICEHLEVLSGRTIRDRLNNYFEILSSKSGSNTFKLPFTMTALADYLSVDRSAMSRELKKMKDEGLIQTNKGIVTINR,not soluble
14,MSLGINGFTAHAQKLSLIYNTLDSRDMPTRGLYAKAAIEGSAEFLGSDASYRHYEAELKGYFPLKEARYITVARVAYNQTLGSDVPFLERSILGGESTLRGYGRNRFIDSSYFLCNLEERIRLFRWSVFDVNTDWEVAPFIDLGAVMESLDKTRSKNFEFNPGIGFRAVVRPNIVGRVDIGVGNDGPAVFVGLGYPFEGHHHHHH,not soluble
15,MGSDKIHHHHHHMTQKLPRQATASEESLMRIFTVPEDAESTLSIIEQKLSEDLAGFLGDSIAALEKPLSEIETDFQAFKIPTQPRFVSDYTDEIMQNLVAHSVHTSAPSFIGHMTSALPYFVLPLSKMMVGLNQNLVKIETSKAFTPLERQVLGMMHHLIYAQNTDFYQSWMHSANHSLGAFCSGGTVANITALWIARNQLLKADGEFKGVTREGLLKALRYYGYDDLAILVSERGHYSLGKAVDLLGIGRDNIISIPTDSHNKVDIAKMRKAALELARKNIKVLAIVGVAGTTETGNVDPLIELAALAKELNCHFHVDAAWGGASLLSNKYRHLLAGIELADSVTIDAHKQMYVPMGAGMVLFKNPEFAHAIAHHAEYILRRGSKDLGSQTLEGSRPGMAMLVHACLQIIGLDGYEILINNSIEKARYFAEQIKAHRDFELVTEPELCLLTYRYVPAKVQAAMQVAIEQGDTAKLARFNELLDGLTQFIQKHQREQGKSFVSRTRISPARYFRQATVVFRVVLANPLTSHDILNQVLVEQSEIAALDKEFLPALLAMVAE,not soluble
16,MSLNELRKRVEIERSLHEAEFKALSYQINPHFLFNVLNTIGRLAFLEDAQRTETMVHDFSDMMRYLLRKNSHGLITLRNEINYVNNYMSIQKVRMRDRFDYLCDIPEKYLDVVCPFLILQPLVENFFNYVVEPRDSNSHLLIRATDDGLNVIIEVTDNGDGIAPDTINRILSGDQKLQKGSIGINNIKNRLKLLFGESYGLEIMSPNKPRMGTTIKLRFPMQEAEGHHHHHH,soluble
17,MGHHHHHHSHMLEPQENGVIDLPDYEHVEDETFPPFPPPASPERQDGEGTEPDEESGNGAPVPVPPKRTVKRNIPKLDAQRLISERGLPALRHVFDKAKFKGKGHEAEDLKMLIRHMEHWAHRLFPKLQFEDFIDRVEYLGSKKEVQTCLKRIRLDLPILHEDFVSNNDEVAENNEHDVTSTELDPFLTNLSESEMFASELSRSLTEEQQRRIERNKQLALERRQAKLLSNSQTLGNDMLMNTPRAHTVEEVNTDEDQKEESNGLNEDILDNPCNDAIANTLNEEETLLDQSFKNVQQQLDATSRNITEAR,soluble
18,MSLRIKNNEVAVYAIGGLHEIGKNMYCVQYQDEIIIMDCGIKFPEDDLLGINYVISDYSYLIKNRKKIKALVVSHGHEDHIGGIPFLLEKIPEIPVYATPFALSLIRGKLEEHGILKTTELHEEHEDTVLKFKKLSVSFFRTTHSIPDTLGIAVHTPLGAVVFTGDFKFDLTPVMDQPAPDFQKMAKLGNEGVLALLSDSTNAEVTQFTKSERFVAQSLHNIITGIHGRIIFATFASNLYRVSTAIQAAIDTGRKVAIFGRSMENGVDNGIDLGYLDIPKDLIVDAEEINKLPPDKVMILCTGSQGEPLAALSRIANGTHRQITLQPGDTVIFSSNPIPGNTLSVNHLINKLMEGGANVIHGRVNNVHTSGHGGQEELKMMVRLTKPKYMIPVHGEYRMQVIHTQLAQQAGVPAENTFVLSNGEVVCFGPNGARLAGRIPAGDVYVDTSGTADVGNVVVHDRQILSEEGLVVAVATVDYKHKRVLAGPDILSRGFVYMRESTELISQAQKHVYHVLRNEMSKSDKPKESEIKKAITENLSDFLYSKTERRPMILPIIIEKEGHHHHHH,soluble

# Reference: the DeepSol protein solubility set
